Source: the RNAGym collection of RNA variant scans (doi:10.7554/elife.80360)

B1: Hairpin Ribozyme (parent)
chain: GUCCUCUUUCACGUGCGCGUGAAAGAGAGAAGUGAACCAGAGAAACACACGUUGUGGUAUAUUACCUGGUA

Variants of: B1
Experiment: self-cleavage, relative activity (ratio to wild type); higher = more cleavage; co-transcriptional

Variant	self-cleavage
C16U G68A	0.283
C18A U70A	0.916
C16U A30C	0.0996
C16G G51A	0.798
C16U A71C	1.41
C16G C37A	0.244
C16G A30G	0.0703
C16G A30C	0.177
G17U G42C	0.281
G17U G19A	0.629
C18A A30U	0.16
G17C G56U	0.185
G17C G56C	0.171
C16G A28C	0.289
C16U G17A	1.19
C16U A23U	0.992
C16U A23C	1.03
G17C G54U	0.417
G17U G29C	0.105
C16U A35U	0.916
G17C C66U	0.346
C18A A26C	0.527
C18A A26G	0.888
C18A A26U	0.898

Variant	self-cleavage
G17C G40A	0.253
G17C G40C	0.168
G17U A26U	0.632
G17C G42C	0.306
G17C G42U	0.134
C18G A28G	1.11
C18G A28C	0.445
G17A U52A	0.912
C18A A59C	0.159
G17U A39G	0.29
G17C A35C	1.04
G17C A35G	0.801
C16U A28U	0.723
C16U A28G	1.32
C16U U62G	0.107
C16U U62C	0.384
G17C G19U	0.502
G17U G27U	0.239
G17U G27A	0.374
G17U G27C	0.165
G17C A64C	0.186
C18A G21A	0.895
C18A G21C	0.885
G17C C65U	0.24

Variant	self-cleavage
G17C C65G	0.339
C18A G51U	1.12
C18A G51C	0.896
G17A C18A	1.2
G17A A22U	0.892
G17A A22C	0.866
G17A A22G	1.12
G17A A43G	0.0835
G17A A30C	0.231
G17U G54U	0.579
G17U G54A	0.642
C16U A61C	0.254
C16U A49U	0.281
G17C A71C	1.18
G17C A71G	0.694
G17A A64C	0.143
G17C U67G	0.161
G17C G29C	0.113
G17A U58G	0.78
G17A U58C	0.869
C18A G69U	0.339
C18A G69C	0.403
G17C U55C	0.216
G17U A23C	0.898

Variant	self-cleavage
G17U A23G	0.632
C18A A31U	0.0438
C18A A31G	0.746
G17A U33A	0.12
G17A U33G	0.0712
G17A G57A	0.228
G17A G57U	0.301
G17C G25U	0.505
G17C G25A	0.417
G17A G51U	1.06
G17U G25A	0.653
G17U G25C	0.682
G17C G68C	0.238
C16G A24U	0.69
C16G A24C	0.688
G17U G40A	0.342
G17U G40C	0.18
G17A C50A	0.21
G17A C48U	0.176
C18A C48G	0.0794
G17A U60C	1.36
G17A G25U	0.494
C16G C48A	0.0451
C16G C48G	0.19

Variant	self-cleavage
C16G A31G	0.431
G17C G27C	0.154
G17C G27U	0.116
G17C G27A	0.419
C16G U70G	0.508
G17A G21U	0.901
C16U A64U	0.162
G17A A23C	0.987
G17A A23U	0.892
C18A A22U	0.794
C18A A22C	1.04
C16U A26C	0.839
G17A C37U	0.463
G17U A71C	1.39
G17U A43U	0.0903
G17U A43C	0.0947
C18G A26G	0.828
G17C A49C	0.146
C16G G32U	0.18
G17U U55G	0.351
G17C C46U	0.113
G17C A23U	0.572
G17C A23C	0.603
C16G A26G	0.766

Variant	self-cleavage
C16G A26C	0.388
C16U G27C	0.202
G17C G32A	0.131
G17C G32U	0.0811
G17C C18U	0.902
C16G U62G	0.181
C16G U62A	0.168
C18A G34C	1.56
C16G G56A	0.073
C18A A39U	0.345
C18A A39C	0.538
C18A A61G	0.25
C18A A61C	0.132
C18A A61U	0.138
C16G U52G	0.443
C16G U52C	0.718
G17C A44C	0.136
G17C A44G	0.121
G17U G68A	0.258
G17U U62C	0.138
C16G U60A	0.62
C16G U60C	1.06
C18A U55A	0.364
C18A U55G	0.296

Variant	self-cleavage
C18A U63G	0.204
C18A U63A	0.13
C16G G29C	0.141
G17U U20A	0.59
C16U U52G	0.761
C18A C37G	0.351
C16U G25A	0.668
C16G A49U	0.221
G17C G21C	0.494
G17C G21A	0.618
G17A A31G	0.694
G17A A31U	0.105
C16G U63C	0.204
G17U U63A	0.128
G17A A26U	0.768
G17U A24U	0.865
C16G A59G	0.17
G17U A31G	0.6
C18A A28G	1.43
C18A A28C	0.492
C18A A49C	0.208
C16U C48U	0.179
C16U C48G	0.108
